Experimental data as given in US20230042465A1 (Janssen / Centocor, published 2023).
Where a chain is given by its changes, count along the chain named. Names may count otherwise.

How the values were obtained:
recombinant human TNFα [1] = target: T1, recombinant human TNFα (human, UniProt P01375 77-233, 125I-labeled in the receptor binding assay); test: inhibition of 125I-TNFα binding to plate-coated p55-sf2, hybridoma supernatant
T1 construct: also called huTNFα; tumor necrosis factor alpha
Protocol: (§1) 50:l of p55-sf2 at 0.5:g/ml in PBS was added to Optiplates to coat the wells during a one-hour incubation at 37° C. Serial dilutions of the eight TNV cell supernatants were prepared in 96-well round-bottom plates using PBS/0.1% BSA as diluent. […] The mixture was preincubated for one hour at RT. The coated Optiplates were washed to remove unbound p55-sf2 and 50:l of the ¹²⁵I-TNFα/cell supernatant mixture was transferred to the Optiplates. After 2 hrs at RT, Optiplates were washed three times with PBS-Tween. 100:l of Microscint-20 was added and the cpm bound determined using the TopCount gamma counter.
A simple binding assay was done to determine whether the eight TNV mAbs contained in hybridoma cell supernatant were capable of blocking TNFα binding to receptor. The concentrations of the TNV mAbs in their respective cell supernatants were first determined by standard ELISA analysis for human IgG.

recombinant human TNFα [2] = target: T1, recombinant human TNFα; test: competition radioligand assay: mAb in hybridoma supernatant preincubated with 5 ng/ml 125I-TNFα, then 125I-TNFα bound to plate-coated p55-sf2 counted as cpm
Protocol: The amount of TNFα that bound to the p55 receptor in the presence of the mAbs was determined after washing away the unbound material and counting using a gamma counter. […] Each sample was tested in duplicate. The results shown are representative of two independent experiments.
as §1
A simple binding assay was done to determine whether the eight TNV mAbs contained in hybridoma cell supernatant were capable of blocking TNFα binding to receptor.

recombinant human TNFα [3] = target: T1, recombinant human TNFα; test: cell-based or functional assay
human lymphotoxin = target: T2, human lymphotoxin (human, UniProt P01374 35-205, limits assumed); test: not described
T2 sequence (looked up): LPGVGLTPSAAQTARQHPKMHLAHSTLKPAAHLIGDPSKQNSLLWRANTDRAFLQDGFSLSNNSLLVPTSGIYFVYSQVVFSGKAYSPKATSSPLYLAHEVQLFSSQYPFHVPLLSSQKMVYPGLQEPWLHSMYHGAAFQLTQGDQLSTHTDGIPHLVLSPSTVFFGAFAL

B1: TNV148 (antibody, human IgG1, kappa, V domains shown)
VH: QVQLVESGGGVVQPGRSLRLSCAASGFIFSSYAMHWVRQAPGNGLEWVAFMSYDGSNKKYADSVKGRFTISRDNPKNTLYLQMNSLRAEDTAVYYCARDRGIAAGGNYYYYGMDVWGQGTTVTVSS
VL: EIVLTQSPATLSLSPGERATLSCRASQSVYSYLAWYQQKPGQAPRLLIYDASNRATGIPARFSGSGSGTDFTLTISSLEPEDFAVYYCQQRSNWPPFTFGPGTKVDIKR
notes: also called GenTNV148.26.12; C420A
- fold better at blocking TNF binding than TNV118 and TNV14 (recombinant human TNFα [1]): ~4 fold
- IC50 (read off the curve) (recombinant human TNFα [2]): ~4 ng/mL
- neutralizing TNFα bioactivity (recombinant human TNFα [3]): 4 fold

B2: TNV86 (antibody, V domains shown)
VH: B1 VH
VL: B1 VL
notes: Hybridoma IgG1 kappa; also called GenTNV86.14.34; C417A
- fold better at blocking TNF binding than TNV118 and TNV14 (recombinant human TNFα [1]): ~4 fold

B3: golimumab (SIMPONI) (antibody, human IgG1, kappa, V domains shown)
VH: B1 VH with P75S
VL: B1 VL
modifications: N-glycosylated on asparagine 306
notes: also called rTNV148B
- binding result (human lymphotoxin): no binding
